These results are taken from publication PMC4456606, “A conserved histidine modulates HSPB5 structure to trigger chaperone activity in response to stress-related acidosis” (eLife, 2015).

Residue numbers refer to the chain shown, from its start. Numbers in names are those of the source. Some results are limits rather than exact numbers.

One may read the Kd as the free concentration of one partner at which half of the binding sites on the other are occupied at equilibrium, for simple one-to-one binding. Lower therefore signals higher affinity. What is called koff is the rate constant with which the complex falls apart. Lower therefore signals a long-lived complex. Usually kon stands for the rate constant with which the complex forms. A high value points to faster complex formation. The stoichiometry N is the number of molecules, sites or subunits per partner or assembly.

B1: HSPB5-ACD (alpha-crystallin domain of HSPB5, residues 64-152) (domain or fragment, human, UniProt P02511 64-152, looked up)
chain: GLSEMRLEKDRFSVNLDVKHFSPEELKVKVLGDVIEVHGKHEERQDEHGFISREFHRKYRIPADVDPLTITSSLSSDGVLTVNGPRKQV
notes: HSPB5 (alphaB-crystallin), human, alpha-crystallin domain, residues 64-152; 15N- or 13C,15N-labelled for the NMR experiments; also called WT-ACD; WT-HSPB5-ACD; source: expressed and purified as described previously (Jehle et al., 2009)
B2: H104Q-ACD (HSPB5-ACD with His-104 replaced by Gln) (domain or fragment, human, UniProt P02511 64-152, looked up)
chain: B1 chain with H41Q
notes: HSPB5 (alphaB-crystallin), human, alpha-crystallin domain, residues 64-152, with H104Q; source: growth and purification similar to that of wild-type proteins (Jehle et al., 2009)
B3: H104K-ACD (HSPB5-ACD with His-104 replaced by Lys) (domain or fragment, human, UniProt P02511 64-152, looked up)
chain: B1 chain with H41K
notes: HSPB5 (alphaB-crystallin), human, alpha-crystallin domain, residues 64-152, with H104K; source: growth and purification similar to that of wild-type proteins (Jehle et al., 2009)
B4: WT-HSPB5 (full-length HSPB5, alphaB-crystallin) (natural protein, human, UniProt P02511 1-175, looked up)
chain: MDIAIHHPWIRRPFFPFHSPSRLFDQFFGEHLLESDLFPTSTSLSPFYLRPPSFLRAPSWFDTGLSEMRLEKDRFSVNLDVKHFSPEELKVKVLGDVIEVHGKHEERQDEHGFISREFHRKYRIPADVDPLTITSSLSSDGVLTVNGPRKQVSGPERTIPITREEKPAVTAAPKK
notes: HSPB5 (alphaB-crystallin), human, full length; Forms polydisperse oligomers; also called αB-crystallin; source: expressed and purified as described previously (Jehle et al., 2009)
B5: H104Q-HSPB5 (full-length HSPB5 with His-104 replaced by Gln) (natural protein, human, UniProt P02511 1-175, looked up)
chain: B4 chain with H104Q
notes: HSPB5 (alphaB-crystallin), human, full length, with H104Q; source: growth and purification similar to that of wild-type proteins (Jehle et al., 2009)
B6: H104K-HSPB5 (full-length HSPB5 with His-104 replaced by Lys) (natural protein, human, UniProt P02511 1-175, looked up)
chain: B4 chain with H104K
notes: HSPB5 (alphaB-crystallin), human, full length, with H104K; source: growth and purification similar to that of wild-type proteins (Jehle et al., 2009)
B7: bovine αLactalbumin (natural protein, UniProt P00711 20-142, looked up)
chain: EQLTKCEVFRELKDLKGYGGVSLPEWVCTTFHTSGYDTQAIVQNNDSTEYGLFQINNKIWCKDDQNPHSSNICNISCDKFLDDDLTDDIMCVKKILDKVGINYWLAHKALCSEKLDQWLCEKL
notes: alpha-lactalbumin, bovine, Sigma L6010; Model client protein; source: bought: Sigma (L6010)

Series [1] concerns the molecule itself. Kind of series: ITC; dilution ITC, 1 mM WT-ACD, dimer to monomers; 37°C, pH 7.5, 50 mM sodium phosphate, 100 mM NaCl.
Series [2] concerns the molecule itself. Description: 15N-CPMG relaxation dispersion NMR; 700 and 200 μM ACD, pH 7.5, 37°C; global fit of dimer interface residues; rate constants worked out with the KD of 36 μM from ITC; dimer to monomers.
Series [3] concerns the molecule itself. Kind of series: ITC; dilution ITC, 1 mM WT-ACD, dimer to monomers; 25°C, pH 6.5, 50 mM sodium phosphate, 100 mM NaCl.
Series [4] concerns the molecule itself. Description: ITC; dilution ITC, 1 mM WT-ACD, dimer to monomers; 25°C, pH 7.5, 50 mM sodium phosphate, 100 mM NaCl. On the technique in general: ITC needs no label: the signal is the heat of the interaction.
Series [5] concerns the molecule itself. Description: 1H-15N HSQC NMR; 200 μM ACD, pH 7.5, 22°C, NMR buffer; populations of dimer and monomer peaks; dimer to monomers.
Series [6] deals with the molecule itself. Description: SEC-MALS; 40 μM subunits, equilibrated at 37°C for at least 60 min; 50 mM sodium phosphate pH 6.5, 100 mM NaCl, 1 mM DTT; size of the oligomers. (In general: Size exclusion chromatography separates by hydrodynamic size, large species first.)
Series [7] deals with the molecule itself. Description: SEC-MALS; 40 μM subunits, pre-incubated at 37°C for 30 min; 50 mM sodium phosphate pH 7.5, 100 mM NaCl, 1 mM DTT; size of the oligomers.
For series [8], the target named is B4. Description: SEC-MALS; WT- and H104K-HSPB5 incubated together at ratios 1:0, 2:1, 1:1, 1:2, 0:1; mixed oligomers. The conditions noted are these: both partners purified.
The target of series [9] is B5. Kind of series: SEC-MALS; HSPB5 (40 μM subunits) pre-incubated with αLac (240 μM in the methods, 120 μM in the legend) at 37°C, pH 7.5, 10 min, then 50 mM DTT for 50 min, filtered and injected; SDS-PAGE of peak fractions. The conditions noted are these: both partners purified.
Series [10] concerns the target B6. The description is as above. The conditions noted are these: both partners purified.

Take B1: in series [1], the Kd is 36 ± 2 µM and the dH was determined as 9330 ± 527 cal/mol. In series [2], this molecule displayed a dissociation rate constant (koff) of 400 s⁻¹ and a kon of 1.1e+07 M⁻¹ s⁻¹. In series [3], the affinity, expressed as Kd, was 30 ± 16 µM and the dH is 3240 ± 432 cal/mol. In [4], this molecule showed a Kd of 2000 ± 2000 nM and a dH of 8770 ± 3960 cal/mol.
In turn, B2 returned a Kd in series [5] of 100 to 500 µM.
On the same count and under the same terms, the value for B3 was greater than 1000 µM.
For the molecule B4, the “stoichiometry N” value in series [6] is roughly 36 subunits per oligomer; in series [7], roughly 24 subunits.
Regarding B5, the binding result in [7] was “binds”.
For B6, the binding result in [8] is reported as “binds”. Moreover, in series [7], the “stoichiometry N” value was roughly 41 subunits.
As to B7, the binding result in series [9] and in [10] was “binds” in each case.
